The DeepSol protein solubility set

Experiment: soluble on expression in E. coli; label from the status in PepcDB or PDB records

Sequence | soluble on expression in E. coli
MAHHHHHHMPRGGHKGGLFPVSGIKWGMNERIKKRGLYHNRREDILTPRWGYRYENENKKYLPDGSSKSFDIDSSRAWPVDKAQWKYYYNINESRYLWPSICANNPEIKNYILNIIENTDTYFSGIGLEQVSNERKNKNLKKDYTNNSYYKNNYLYNLVHELNNTIYPQIEINLNNNLKRGRIQKLYDIIKEENIWKTTQKIKTPESENVFPYVDDNATLIRELPLSEILYTKSNLRLKVRRHPKWMNVQFLKKKVKIPYLYR | not soluble
MAHHHHHHMPSEYHSSLADVSPRLSSRQRCSVRAGLSSTPRHAQGRRHLDPHHFTNLTDDAKRAEGRLGRAHVASSEQQKRADAYYATKQATVAQPPGAECNLYLKSYYYTPLSKQETPSPPPRPTTGFRADAQSTSFQLAEARLRKIKREHPQYEEEVTRALQQQHGDYSIVSTEQKISRRIAVEEYADGTNARMAQIEASTKYRGTPDLGSPAPAIKRSVPYALSEECPPRADTQLSCTSHVRLYPGCGRSSFPPETPVKPRARHLYDGPVPYDTTAASGEAYPSPPAVGERCNIYAKPTLVHVDERRHRDCVEDADSLAMKRARARSGARASQERPDFIFGPGPAPQPRPPSLRHHTEARWKAQERNAENRRTGRALYPQSHRSTSLW | not soluble
MAHHHHHHMPSGERRGRVGPVRFRTFLRNTVLDVMRSRGWLETDSDLGWDLFWADVGWIREVHDHVRLDDVQRINHFRNHFELTRKDFMVKNLKRMRKSLEREGRLEEATEFDFFPVTFSLPQDYGMFETEFRRQPNAIWIMKPPAKAQGKGIFLFSKISQIAEWRKDYKQRQVGAVGEKAGGPYGAEQVEPYLAQRYIENPHLVGGKKYDLRVYVLVTCYSPLTVWLHRTGFARFCHQRFSLRDIENTFIHVTNVAVQKTNPKYTPSSGCKYGLRNLRQYITASRGVETAQKLFDDIQNMILRSLHAVQKIIVQDKHCFELYGYDIMVDNDLHPWLIETNASPSLSAETPADYHLKFNMLEDMFSVIDIEKRRTGDEIRVGGFDLIWKNGPVGPACRGDAKGGGVTQSFLGCANELEIPISHMRMPPRLQQMDSSERLLT | not soluble
MAHHHHHHMPTPRETVVAFLTQACCGTIVALHRMGGMEVMLYKEQLVVMLTRYFNSCWNSLLSGDDPYVVESFNMMKHDNPGCVMRYLFSVGTSVLPDEPPQEIARYSPEDTDDLEAARVTISETLQQLLAERIAVDPFQHSCEGLSLSAERTAWSEKGCPPQNFFEIS | soluble
MAHHHHHHMPTSSGVDQAKLREVIRVLKSVGHVGMAESLEVEWGMKPNTAAHAKNAKKGRKSLPHKSRESSKARGNSFPSLSSIAVAPSPLQVTSQSRFVVTCIGDEEDLWSPDEDPADAKRCIAPLFDYGAGLLRDHYAEYAAHPVSFVSVHPYEKQQPPSNLPWRHFELKVFYEAGKTGSEEKKEFELVKGDLIGGRYHVDAPIDAATFSRTVRCYDEQTGQPVCLKIIRNSKTFLDQGLDELRALTCVNDAGDADACCVVRLLDYFYFREHLVLVTELLFDNLYEYARKLDIVERCAYFTLARLQRIVRQVLTALKLIHSVNLIHCDIKPENIAFKSVSDCDVKVLDLGSSCYMTDTLSSYVQSRSYRAPEVILGCKYGPAVDIWSLGATAAELATGTVLFNVESVPTMLASIASVCGPIPAEMLQEGRNTSLYVTQHGAFYDYEDEQLVFHFPSEPPDAAVLFGFDDHDYVDFVRLCLTLDAALRPSAAQLLDHPFLTKTYTD | not soluble
MAHHHHHHMPVSHHEGCGCKNSDEVLKGGEFLLKYINIDKVTALNEKTHGSCRKILKSYDNRLSPDNCESDVDHELIINIPFNSPCKISSLFLIGGEEGTYPRKIKIFSNREDIDFGNINDFKCVQELELSQDFHGSIEYPLKVTSLFNVSYLTLYFYENYGADTTKIFYIGLKGVGTNYIRKAVETVYEASPNLSDHKIEGSSKAAHFRFDAF | soluble
MAHHHHHHMQDEHKFNAEDRRRAPPPNTPERALDYHERTNDDKLIAHASQVNHLSKPRHRNCLTEFIIVETPVVSFLVDSSDPSLCLLRRSGRQGTKNEEKGVH | soluble
MAHHHHHHMQTATAPFILRSLYKDAYISDMQIARPITELMMNTIGAQLTNKYDTHIPAIACSLYTLFSMSRVQTLGQEFCDLLPVVKAHPWQPVGPARVLLLAVLQLVEPTAVFVVARKLFPDLSTADVEEVLRKAVLCALFLFERFGTLPHRIARVRFLSLKPSRTLQDSDGAPGSYLVLGLVLLVELVVRLWRYSKERTSREAKRSTEAAVITSSDEDAEDARSGKCMLCLSNRKCPTATNCGHIFCWRCIAEWIQSNPQEAVCPFCRQHITTQSLVPLYFYVAKEPPRVGTATDAAAPPAA | soluble
MAHHHHHHMREARERARIAEAEADSAMEAADRAILEELLRKDEEERRAAAEREAAARRAAEERAAAERLKAEDEARQAAEAARQRALEEERQRQRESAKQAAKSQLHDEPSTDVATSETVQISVRCPSGKHYDRRFLRSDLVDQLTFFVLTLDEVADATDASTVRFVTGFPPAPLVWREGETRFGDVKSLCPRAVVLLRRL | not soluble
MAHHHHHHMRFFKSDGTPYNSDMTDTLHGSEYVHRGGVEAIVEGVAAGQYAEHKPRAIMFVNKRPVEIIPQEENLLEVLEREGIRVPKFCYHPILSVAGNCRMCLVQVDGTQNLVVSCATVALPGMSIITDSRLVRDAREGNVELILINHPNDCPICEQATNCDLQNISMNYGTDIPRYKEDKRAVQDFYFDPQTRVVLNRCIHCTRCVRFLNEHAQDFNLGMIGRGGLSEISTFLDELEVKTDNNMPVSQLCPVGKLYLGDADENNAVADELDASEQAYAVATS | soluble
MAHHHHHHMRGQRSGKFAEYTATYAILKRIGLHQTVLIEKRDASVGYGVYVRDACDSGTPLLVVPSRHAFSLSTVQKLGARVRQEDLMQSPQLEILNRGVLSRLLGCTAGEWISLAWRLAIEHQRSLSPWWGWLNVLPRMQDFRTMEDESGRQCRLHRVQLLPYFIEVQGSMQEEICSAYEVLSEKNLMPSPNHFRWAVDVILTRSHRLPACWTNGEGSSVELGIIPFVDLVNGDDGGERRRNARVEVAFEVEELPRWYRDEFLQESERRHVNGEEALRRLLEEHFFALVALERDLTASEEVIMEYELVPWVTGALSHEDDLLLGRLLRYRF | not soluble
MAHHHHHHMRGQSSFSSIGEKPNALRDANDVTPMDTRHLHATCAAEEITHNTGANKKRQRGCRTPLMNAGDGSSIHSATSHQSSQAAHRTADAPSDISNRPTQSSGRAMELIRQRRSTVVRRITDIPALGQSHKEGERCGLINVGAVNVEAENAPSEQFSTFFSFFFFCRTHEQPMNEESCAALLVGILEVAPSTRPRHTRMLRSTLEMNRTPLEMVILGLQKIASRWETKQARPLTKEWLNQPIRSRTDWKERVVFRLVWITASRLFEIVALTPKNVTLEPNGTLILYWPVAPKTARADPHCASRFVGMRGQDAFDIIKLCMTL | not soluble
MAHHHHHHMRRGGTVVFQRHRVSGGISRANEMSAFARLRGGQQKTETDWVPTLLLSGETPPPIARPAETAAFFLASFDPFVFSYCMFDFPTILHHAGELSEHELLDYPGSMLMSPRSLFLQPTAHLRFGSERQQRMAVVLQSLLDRHDESERSPVPCARALGVQCPLFVPFLRGVCLCVETQHPFAPQAAYVFEELLASGFVSSTLYLDGTYVDRNRTLAQIVQLAAREFGSESALFTGLLLDEEHASPPETIAVGRLVAQTLAAADRRRLDWALKTRGAVRQRLVPQHGWTLGPSPSLLSTAQQ | soluble
MAHHHHHHMRRTGIRRVAPWVPPPRHDVKVTMPPPPGGEVGGSFGVSIGYSDRIACTPYWKRMALSNYALRMKENATRYPMSEHRPGEYDIRYLPKPYPCTIRNRPLLEVGEPRQIPSIQIPVIFLVNLYNEEKNSWFGRKYETVYVSRQFMREELMPQRYAIYATPEAYALLGLPVVDHGIHKEIPKTPREYEKLLERQKYDEERWKYSIEYLFRKYEAGPPELLDRAEDTWDGTEVLAVSSTAGAARHGEAVQRKGAIKHRKARKIKLF | not soluble
MAHHHHHHMRRTIRVFTGKLLWEDFTNTRLITINREKALNSMDLEMVKAMQRAYVHEPHAKGDSALFVVKGAGNKSFCAGGDIVSLKDRYDVAAEFFYTEYQMNYHILTMPNPQVSLWDGYVMGGGVGVSVHGRYRVASERAVFAMPETAIGLFPDVGASWFLPRLKMKGLGLYLGLTGARLKGADVAHTGLATHYVPSARFCELEERLCHIDDPAKVEACLEEFAVRDLPPFTLEPHRETIEKSFALEEKTTVEGIYESLSADGGEFAKGTINTLNRMAPTSLRVSLEMQKRGVKMTDPADVFRMDYIGSLRTHANSDFHEGVRALLVDKTKDPKWKPAKLSDVTADYVEAYFKPMGNQARQWHPTVPY | soluble
MAHHHHHHMSAEGLSRFFTENLTEEGRSDLNQWEAKTLEFAQRVNRDGCEGVAFITSGGTAVPLEVHAVRFVTNFSSGGRGAVLVEELLARGWACILLRSKTSQLPFRRLVDNMTTEQFFAELNAPQKSCDVSAAIEAYTKYKSRFLEIPYYTVVEYLYLFSLLTGTLSHRAECLRQTPMMLLAAAAVSDYYIPESRLSHHKMSGGDGLTIQFNNVPKILDLISEEWHGSSRAAPRYLITFKLETEEEQLKAKALRNLGLYRCDAVVANMLQNYRERVLVFWNGEEQNPTLLHRSPNGSVESLMIDHVLQRIKNHAKGCGMQYKLEGRRR | soluble
MAHHHHHHMSALKDKTGRFVVLDKNASNYESLVDQEMNNVYERVMKLDPNQVEFLQAFHEILYSLKPLFMEEPKYLPIIETLSEPERAIQFRVCWLDDNGVQRKNRCFRVQYNSALGPYKGGLRFHPSVNLSIVKFLGFEQIFKNSLTGLSMGGGKGGSDFDPKGKSDNEILKFCQAFMNELYRHIGPCTDVPAGDIGVGGREIGYLYGQYKKIVNSFNGTLTGKNVKWGGSNLRVEATGYGLVYFVLEVLKSLNIPVEKQTAVVSGSGNVALYCVQKLLHLNVKVLTLSDSNGYVYEPNGFTHENLEFLIDLKEEKKGRIKEYLNHSSTAKYFPNEKPWGVPCTLAFPCATQNEINLEDAKLLQKNGCILVGEGANMPSTVDAINLFKSNNIIYCPSKAANAGGVAISGLEMSQNFQFSHWTRETVDEKLKEIMRNIFIACSENALKYTKNKYDLQAGANIAGFLKVAESYIEQGCF | soluble
MAHHHHHHMSATPKQPSTATTSISSDEKWDHSLETLIRKSTIGFASGILPGLLLARSPAARSAIIALCTGVGSGIAYGEARYLFDHDIMFDKRHLIQVQVVGGSSSQQSGAQKSME | not soluble
MAHHHHHHMSDEDHDFAHQGGGDNASKTYPMAAGALKKGGYVCINGRPCKVIDLSVSKTGKHGHAKVSIVATDIFTGNRLEDQAPSTHNVEVPFVKTFTYSVLDIQPNEDPSLPSHLSLMDDEGESREDLDMPPDAALATQIKEQFDSGKEVLVVVVSAMGTEQVLQTKNAAEK | soluble
MAHHHHHHMSFAGLQKRLKNKAVATTTTNSTPPSSDAKTDNIESSSSVYDVAAREARANHEERKRQRSPHDKENTAYNPTINERNGPADMLSDHPSVEKASSKTLTETEFLERRHLAEEVVLQCAEAMSRNMELAATSIDKIDIKKESEVYDMSGLPLPLCQFLEQRLQRSSDATAMLISTCEEEEHNLVSALRSPSNLPMLFPPQVEDFVTTLRTLWLALCWHWVMALRGKEGNEGKEVSENGWSYNVYLLSRHALPITVRNTRGRDVALALQAWQEAYRVRQNMLDFLAYILHDMGVVLRFSGDDASKGDENLRIVPPKIADSIFCMVQHLRRRDFTTVRQAYVELTMGTANWKLGLFSGGEVHMRRSMERIERRRIEHLLHNERAVRLLHVLRELIEFVQKNEVMLLHTGIFAREKSMKEHSP | not soluble
